The text below walks through data of patent US20050277175.

In the series the target is bovine aggrecan (UniProt P13608).
Chain of bovine aggrecan (P13608 20-2364): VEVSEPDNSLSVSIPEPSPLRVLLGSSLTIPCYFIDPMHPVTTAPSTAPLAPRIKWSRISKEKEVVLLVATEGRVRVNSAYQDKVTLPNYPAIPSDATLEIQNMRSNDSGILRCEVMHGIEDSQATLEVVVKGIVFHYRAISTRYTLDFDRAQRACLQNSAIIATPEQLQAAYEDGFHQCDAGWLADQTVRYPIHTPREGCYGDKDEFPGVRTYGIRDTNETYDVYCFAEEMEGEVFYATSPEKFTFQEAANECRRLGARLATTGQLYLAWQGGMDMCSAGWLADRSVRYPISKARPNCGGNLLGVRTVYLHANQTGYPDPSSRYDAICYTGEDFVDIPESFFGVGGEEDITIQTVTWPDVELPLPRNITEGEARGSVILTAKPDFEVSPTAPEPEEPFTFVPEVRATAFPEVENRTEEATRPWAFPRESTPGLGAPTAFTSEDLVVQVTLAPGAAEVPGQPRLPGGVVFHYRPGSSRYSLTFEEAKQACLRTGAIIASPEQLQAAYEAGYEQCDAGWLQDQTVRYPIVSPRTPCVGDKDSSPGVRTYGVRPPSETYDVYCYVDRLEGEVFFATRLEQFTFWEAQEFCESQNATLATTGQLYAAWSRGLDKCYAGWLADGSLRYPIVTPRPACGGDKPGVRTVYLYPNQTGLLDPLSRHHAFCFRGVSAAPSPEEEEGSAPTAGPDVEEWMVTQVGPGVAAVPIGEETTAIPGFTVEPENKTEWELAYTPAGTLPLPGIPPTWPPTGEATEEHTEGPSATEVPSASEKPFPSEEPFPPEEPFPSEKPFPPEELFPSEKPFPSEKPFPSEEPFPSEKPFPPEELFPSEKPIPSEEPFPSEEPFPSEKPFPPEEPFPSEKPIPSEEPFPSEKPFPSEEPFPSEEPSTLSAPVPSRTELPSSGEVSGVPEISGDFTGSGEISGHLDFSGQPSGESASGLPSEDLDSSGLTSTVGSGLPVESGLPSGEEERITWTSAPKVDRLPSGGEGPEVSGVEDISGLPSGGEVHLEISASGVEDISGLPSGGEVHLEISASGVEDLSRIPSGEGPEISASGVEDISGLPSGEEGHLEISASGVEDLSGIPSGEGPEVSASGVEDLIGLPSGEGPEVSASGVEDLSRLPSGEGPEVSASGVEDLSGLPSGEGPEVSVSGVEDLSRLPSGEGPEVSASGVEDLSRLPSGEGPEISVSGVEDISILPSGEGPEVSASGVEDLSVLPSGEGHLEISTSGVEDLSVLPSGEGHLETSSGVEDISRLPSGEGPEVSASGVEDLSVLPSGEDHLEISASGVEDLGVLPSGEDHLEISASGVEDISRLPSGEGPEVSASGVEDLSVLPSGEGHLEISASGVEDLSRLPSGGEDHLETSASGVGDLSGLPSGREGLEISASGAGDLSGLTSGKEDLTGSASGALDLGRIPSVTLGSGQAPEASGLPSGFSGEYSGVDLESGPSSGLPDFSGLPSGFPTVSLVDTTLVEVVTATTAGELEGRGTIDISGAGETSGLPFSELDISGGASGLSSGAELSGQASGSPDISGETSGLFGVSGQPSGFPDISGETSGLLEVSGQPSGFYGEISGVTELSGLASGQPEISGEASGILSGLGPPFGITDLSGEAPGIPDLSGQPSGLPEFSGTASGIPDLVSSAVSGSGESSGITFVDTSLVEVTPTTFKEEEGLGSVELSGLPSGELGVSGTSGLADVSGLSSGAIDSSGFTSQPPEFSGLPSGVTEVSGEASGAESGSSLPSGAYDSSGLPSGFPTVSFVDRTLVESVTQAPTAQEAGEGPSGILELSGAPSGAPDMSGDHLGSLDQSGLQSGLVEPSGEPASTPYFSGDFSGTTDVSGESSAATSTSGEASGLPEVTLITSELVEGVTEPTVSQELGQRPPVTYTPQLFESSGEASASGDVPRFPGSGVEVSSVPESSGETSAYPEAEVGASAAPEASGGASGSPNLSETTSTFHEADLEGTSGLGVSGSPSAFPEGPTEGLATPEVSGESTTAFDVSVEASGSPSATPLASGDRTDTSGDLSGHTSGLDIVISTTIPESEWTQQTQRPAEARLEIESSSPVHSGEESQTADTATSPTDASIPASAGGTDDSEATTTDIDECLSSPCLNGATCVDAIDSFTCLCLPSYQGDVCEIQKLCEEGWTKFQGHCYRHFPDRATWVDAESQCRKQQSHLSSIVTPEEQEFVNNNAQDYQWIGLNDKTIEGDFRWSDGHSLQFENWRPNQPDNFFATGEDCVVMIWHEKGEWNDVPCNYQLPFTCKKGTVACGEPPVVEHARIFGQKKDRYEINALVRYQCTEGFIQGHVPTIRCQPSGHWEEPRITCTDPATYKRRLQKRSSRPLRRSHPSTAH

In the case of “recombinant aggrecanase 1 protein (ADAMTS-4)”, the “aggrecanase activity (digestion of bovine aggrecan, neoepitope Western blot with C1 MAb)” value was “Positive control is recombinant aggrecanase 1 protein (ADAMTS-4)”.
